We go through 3 molecules from patent US20260085129A1 (ECO ANIMAL HEALTH, published 2026).

Assay [1] addresses T1, porcine CD163 with deletion of SRCR domain 5, on pPAMΔ5 cells (porcine, UniProt Q2VL90 47-1115).
T1 construct: also called pPAMΔ5 domain cells; pPAMΔ5 WT cells
T1 sequence: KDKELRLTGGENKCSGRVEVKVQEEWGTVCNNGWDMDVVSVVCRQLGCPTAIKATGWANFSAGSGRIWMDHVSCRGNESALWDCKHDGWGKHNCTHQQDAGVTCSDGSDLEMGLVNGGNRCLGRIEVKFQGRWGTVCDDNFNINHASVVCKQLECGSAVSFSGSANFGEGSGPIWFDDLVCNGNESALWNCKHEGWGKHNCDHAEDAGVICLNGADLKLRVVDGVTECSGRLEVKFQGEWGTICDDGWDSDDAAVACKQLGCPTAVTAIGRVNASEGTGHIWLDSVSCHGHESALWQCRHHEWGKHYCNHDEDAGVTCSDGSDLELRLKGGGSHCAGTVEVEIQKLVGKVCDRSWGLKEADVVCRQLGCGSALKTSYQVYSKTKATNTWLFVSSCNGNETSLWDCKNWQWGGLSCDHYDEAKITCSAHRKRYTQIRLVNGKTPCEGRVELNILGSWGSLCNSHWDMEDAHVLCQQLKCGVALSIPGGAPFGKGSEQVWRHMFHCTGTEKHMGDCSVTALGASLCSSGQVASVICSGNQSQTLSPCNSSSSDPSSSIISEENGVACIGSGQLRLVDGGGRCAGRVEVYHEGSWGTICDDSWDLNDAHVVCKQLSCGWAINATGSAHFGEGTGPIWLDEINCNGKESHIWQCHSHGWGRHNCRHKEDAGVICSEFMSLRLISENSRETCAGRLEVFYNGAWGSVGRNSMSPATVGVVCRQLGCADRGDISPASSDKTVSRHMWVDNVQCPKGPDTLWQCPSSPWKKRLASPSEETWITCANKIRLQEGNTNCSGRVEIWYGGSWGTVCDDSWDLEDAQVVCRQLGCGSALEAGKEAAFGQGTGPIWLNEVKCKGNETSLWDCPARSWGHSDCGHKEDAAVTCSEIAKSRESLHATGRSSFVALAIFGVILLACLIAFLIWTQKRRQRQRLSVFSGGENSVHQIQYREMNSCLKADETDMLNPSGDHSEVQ
The assay can be described thus: P.E. FACS screening on pPAMΔ5 cells.

The target of assay [2] is T2, porcine CD163, membrane-bound form on porcine pulmonary alveolar macrophage (pPAM) WT cells (porcine, UniProt Q2VL90 47-1115).
T2 construct: Native CD163 on primary cells; also called membrane CD163; cell-surface CD163
T2 sequence: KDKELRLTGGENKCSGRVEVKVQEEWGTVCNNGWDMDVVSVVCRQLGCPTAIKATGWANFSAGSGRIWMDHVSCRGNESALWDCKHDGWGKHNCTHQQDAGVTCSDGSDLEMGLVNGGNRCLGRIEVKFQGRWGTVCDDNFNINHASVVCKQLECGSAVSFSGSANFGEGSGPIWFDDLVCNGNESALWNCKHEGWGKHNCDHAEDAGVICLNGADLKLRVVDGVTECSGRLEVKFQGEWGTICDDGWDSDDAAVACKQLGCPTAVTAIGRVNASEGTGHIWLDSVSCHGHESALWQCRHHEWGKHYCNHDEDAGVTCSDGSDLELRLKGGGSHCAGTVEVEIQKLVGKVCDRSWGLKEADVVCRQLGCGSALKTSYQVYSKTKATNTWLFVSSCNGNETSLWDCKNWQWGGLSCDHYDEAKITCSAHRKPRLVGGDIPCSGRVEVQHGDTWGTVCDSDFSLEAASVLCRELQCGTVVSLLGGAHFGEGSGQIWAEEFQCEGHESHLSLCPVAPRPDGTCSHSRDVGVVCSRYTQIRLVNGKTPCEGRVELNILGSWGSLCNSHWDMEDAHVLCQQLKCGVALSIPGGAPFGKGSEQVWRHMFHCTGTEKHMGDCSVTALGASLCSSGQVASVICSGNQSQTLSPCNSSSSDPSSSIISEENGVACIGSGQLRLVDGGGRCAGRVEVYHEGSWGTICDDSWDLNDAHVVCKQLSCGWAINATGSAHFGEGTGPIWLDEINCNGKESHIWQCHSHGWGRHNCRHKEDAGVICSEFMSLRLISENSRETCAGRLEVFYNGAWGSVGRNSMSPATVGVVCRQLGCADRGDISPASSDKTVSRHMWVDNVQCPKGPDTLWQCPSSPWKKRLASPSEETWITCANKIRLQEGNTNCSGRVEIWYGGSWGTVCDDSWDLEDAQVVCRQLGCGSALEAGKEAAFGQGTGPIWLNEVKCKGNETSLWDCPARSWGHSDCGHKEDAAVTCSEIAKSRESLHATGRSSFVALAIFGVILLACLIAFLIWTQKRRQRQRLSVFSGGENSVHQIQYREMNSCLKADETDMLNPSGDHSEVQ
The assay can be described thus: P.E. FACS screening on pPAM WT cells.

Assay [3] concerns the target T2, porcine CD163, membrane-bound form on …. The assay can be described thus: cell-based or functional assay.
Assay [4] shares this target. Description: cell-based or functional assay. The source holds these as a separate data set.
The target is the same in assay [5]. Description: dose-response FACS on pPAM WT cells, anti-FLAG-biotin and streptavidin R-PE detection. As for the experimental part: Biparatopic and triparatopic antibody constructs in PBS (pH7.4) were diluted in a 3-fold serial dilutions from 150 nM down to 0.023 nM in FACS buffer (0.5% FBS, 0.5 mM EDTA in 1×PBS pH7.4). Biparatopic and triparatopic candidates were incubated with anti-FLAG-Biotin (Sigma, Cat. nr. F9291), for 30 min on ice with shaking. This mixture was added to pPAM WT cells and incubated for 60 min on ice with gentle shaking. Cells were washed 3×with 150 μl/well of FACS buffer and incubated with 50 μl/well of the secondary detection reagent Streptavidin R-P.E. conjugate antibody (Invitrogen, Cat. nr. SA10044) for 30 min on ice with shaking and protected from light. Cells were then washed 3× with 150 μl/well of FACS Buffer and resuspended in 50 μl/well of FACS buffer to be measured on a FACS machine (Attune™ N×T), and a total of 10000 cells were acquired per sample.

B1: Clone 19-H03E11 VHH antibody (VHH)
VHH: QVQLQESGGGLVQVGSSLRLSCVTSGRTPSRYVMGWFRQAPGQEREFVAAISWSGRAPYADSVKGRFTISRDNAKNTVYLQMNSLKPEDTGVYYCAGGEGAIKWTTLDAYDYWGQGTQVTVSS
notes: Tested as periplasmic extract in ELISA and FACS screening; also called VHH 019 (3E11)
With B1, the binding result in assay [1] is recorded as “no binding”; in assay [2], “binds”.

B2: 17B11 + 03E11 + 03D03 2(G4S) triparatopic VHH construct (bispecific antibody)
chain: QVQLVESGGGLVQAGGSLRLSCAASGRTFSSYAMGWFRQTPGKDREFVARIGWTGGTTIYADSVKGRFTISRDNAKNTVYLQMNSLKPEDTAVYYCAADQAGWRTAGVRNTYEYDYWGQGTQVTVSSGGGGSGGGGSQVQLQESGGGLVQVGSSLRLSCVTSGRTPSRYVMGWFRQAPGQEREFVAAISWSGRAPYADSVKGRFTISRDNAKNTVYLQMNSLKPEDTGVYYCAGGEGAIKWTTLDAYDYWGQGTQVTVSSGGGGSGGGGSQLQLVESGGGLVQPGGSLRLSCAASGFTLDDYTIGWFRQAPGKEREGVSCINSITSNTYYADSVKGRFTISRDNAKNTVYLQMNSLTAEDTAIYYCAADSGLFSGSSCLKYRAMRFGSWGQGTQVTVSS
notes: Triparatopic; also called Tri-10; Triparatopic-10; not shown: FLAG and His tags
Regarding B2, in assay [3], the “IC50, PRRSV1 LT3 infection assay, high CD163 porcine serum” value turned out to be 4.02 nM and the “IC50, PRRSV1 LT3 infection assay, low CD163 porcine serum” value came out at 3.41 nM. In assay [4], the “IC50, PRRSV2 strain MN184 infection assay, 10% FBS” value stood at 2.84 nM; the “IC50, PRRSV2 strain NA174 infection assay, high CD163 porcine serum” value is 7.6 nM; the “IC50, PRRSV2 strain NA174 infection assay, low CD163 porcine serum” value was determined as 3.94 nM. In addition, the EC50 in assay [5] worked out at 11.6 nM.

B3: Clone 17-H03D03 VHH antibody (VHH)
VHH: QLQLVESGGGLVQPGGSLRLSCAASGFTLDDYTIGWFRQAPGKEREGVSCINSITSNTYYADSVKGRFTISRDNAKNTVYLQMNSLTAEDTAIYYCAADSGLFSGSSCLKYRAMRFGSWGQGTQVTVSS
notes: Tested as periplasmic extract in ELISA and FACS screening; also called VHH 017 (3D03)
Regarding B3, the figures for the binding result in assay [1] and in assay [2] were “no binding” and “binds”, respectively.

By EC50 is commonly meant the concentration giving half of the maximal effect.
